Results from patent US20150017095A1 (AbbVie / Abbott, published 2015).
Substitutions are numbered along the chain they refer to.

What was measured:
[1] = molecular target: T1, Recombinant Human IL-6 sR (human, UniProt P08887 20-358); assay: direct bind ELISA, antigen coated on plate
T1 construct: domain: IL-6 sR; Bought reagent; also called IL-6R
T1 sequence (looked up): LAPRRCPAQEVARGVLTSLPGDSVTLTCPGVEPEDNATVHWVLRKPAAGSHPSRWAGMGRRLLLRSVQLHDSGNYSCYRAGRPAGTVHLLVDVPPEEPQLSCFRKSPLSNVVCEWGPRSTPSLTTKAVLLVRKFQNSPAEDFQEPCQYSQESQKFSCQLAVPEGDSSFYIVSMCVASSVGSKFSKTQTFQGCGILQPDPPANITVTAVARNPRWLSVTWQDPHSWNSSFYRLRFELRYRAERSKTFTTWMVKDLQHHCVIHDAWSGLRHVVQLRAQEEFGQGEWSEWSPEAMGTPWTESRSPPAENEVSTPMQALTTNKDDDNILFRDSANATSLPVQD
Protocol: (§1) Enzyme Linked Immunosorbent Assays to screen for antibodies that bind a desired target antigen were performed as follows. High bind ELISA plates (Corning Costar #3369, Acton, Mass.) were coated with 100 μL/well of 10 μg/ml of desired target antigen (R&D Systems, Minneapolis, Minn.) or desired target antigen extra-cellular domain/FC fusion protein (R&D Systems, Minneapolis, Minn.) or monoclonal mouse anti-polyHistidine antibody (R&D Systems # MAB050, Minneapolis, Minn.) in phosphate buffered saline (10×PBS, Abbott Bioresearch Center, Media Prep# MPS-073, Worcester, Mass.) overnight at 4° C. Plates were washed four times with PBS containing 0.02% Tween 20. Plates were blocked by the addition of 300 μL/well blocking solution (non-fat dry milk powder, various retail suppliers, diluted to 2% in PBS) for ½ hour at room temperature. Plates were washed four times after blocking with PBS containing 0.02% Tween 20.
(§2) Plates were washed 4 times with PBS containing 0.02% Tween 20.
(§3) One hundred microliters of enhanced TMB solution (Neogen Corp. #308177, K Blue, Lexington, Ky.) was added to each well and incubated for 10 minutes at room temperature. The reaction was stopped by the addition of 50 μL 1N sulphuric acid.

[2] = molecular target: T1, Recombinant Human IL-6 sR; assay: BIACORE SPR, antibody captured, antigen in flow
Protocol: (§4) The BIACORE assay (Biacore, Inc, Piscataway, N.J.) determines the affinity of antibodies or DVD-Ig with kinetic measurements of on-rate and off-rate constants. […] All chemicals are obtained from Biacore® AB (Uppsala, Sweden) or otherwise from a different source as described in the text. For example, approximately 5000 RU of goat anti-mouse IgG, (Fcγ), fragment specific polyclonal antibody (Pierce Biotechnology Inc, Rockford, Ill.) diluted in 10 mM sodium acetate (pH 4.5) is directly immobilized across a CM5 research grade biosensor chip using a standard amine coupling kit according to manufacturer's instructions and procedures at 25 μg/ml. Unreacted moieties on the biosensor surface are blocked with ethanolamine. Modified carboxymethyl dextran surface in flowcell 2 and 4 is used as a reaction surface. Unmodified carboxymethyl dextran without goat anti-mouse IgG in flow cell 1 and 3 is used as the reference surface. For kinetic analysis, rate equations derived from the 1:1 Langmuir binding model are fitted simultaneously to association and dissociation phases of all eight injections (using global fit analysis) with the use of Biaevaluation 4.0.1 software. Purified antibodies or DVD-Ig are diluted in HEPES-buffered saline for capture across goat anti-mouse IgG specific reaction surfaces. Antibodies or DVD-Ig to be captured as a ligand (25 μg/m) are injected over reaction matrices at a flow rate of 5 μl/min. The association and dissociation rate constants, kₒₙ (M⁻¹s⁻¹) and koff (s⁻¹) are determined under a continuous flow rate of 25 μl/min. Rate constants are derived by making kinetic binding measurements at different antigen concentrations ranging from 10-200 nM. The equilibrium dissociation constant (M) of the reaction between antibodies or DVD-Igs and the target antigen is then calculated from the kinetic rate constants by the following formula: KD=koff/kₒₙ. Binding is recorded as a function of time and kinetic rate constants are calculated.

murine TNFα [3] = molecular target: T2, murine TNFα (murine, UniProt P06804 80-235); assay: ELISA, TNFα binding activity (Example 2.2.3.3)
T2 construct: also called mouse TNFα; A-846899.0
T2 sequence (looked up): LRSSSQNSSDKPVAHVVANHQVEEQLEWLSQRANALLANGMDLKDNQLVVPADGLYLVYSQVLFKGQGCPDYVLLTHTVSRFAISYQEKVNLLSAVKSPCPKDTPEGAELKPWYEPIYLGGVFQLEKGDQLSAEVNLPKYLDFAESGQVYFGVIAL

murine TNFα [4] = molecular target: T2, murine TNFα; assay: cell-based or functional assay
Recombinant Human IL-15 = Recombinant Human IL-15 (human, UniProt P40933 49-162); assay: BIACORE SPR, DVD-Ig captured, antigen in flow (N-terminal VD)
Protocol: as §4

[5] = molecular target: T1, Recombinant Human IL-6 sR; assay: direct bind ELISA, antigen coated on plate (C-terminal VD)
Protocol: as §1, §2, §3

[6] = molecular target: T1, Recombinant Human IL-6 sR; assay: BIACORE SPR, DVD-Ig captured, antigen in flow (C-terminal VD)
Protocol: as §4

Recombinant Human β-NGF = Recombinant Human β-NGF (human, UniProt P01138 122-239, limits assumed); assay: BIACORE SPR, DVD-Ig captured, antigen in flow (C-terminal VD); BIACORE, DVD-Ig captured, NGF in flow, 25 C; C-terminal VD
Protocol: as §4

Chain of Recombinant Human β-NGF (P01138 122-239 limits assumed): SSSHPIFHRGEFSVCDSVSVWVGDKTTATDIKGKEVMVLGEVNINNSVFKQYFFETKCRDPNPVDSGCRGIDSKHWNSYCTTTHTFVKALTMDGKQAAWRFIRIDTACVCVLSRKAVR
Chain of Recombinant Human IL-15 (P40933 49-162 limits assumed): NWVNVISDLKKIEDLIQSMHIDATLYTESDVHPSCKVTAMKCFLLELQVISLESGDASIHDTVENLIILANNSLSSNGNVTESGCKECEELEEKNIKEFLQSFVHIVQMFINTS

B1: AB054 anti-IL-6R parent antibody (antibody, human IgG1, V domains shown)
VH: EVQLQESGPGLVRPSQTLSLTCTVSGYSITSDHAWSWVRQPPGRGLEWIGYISYSGITTYNPSLKSRVTMLRDTSKNQFSLRLSSVTAADTAVYYCARSLARTTAMDYWGQGSLVTVSS
VL: DIQMTQSPSSLSASVGDRVTITCRASQDISSYLNWYQQKPGKAPKLLIYYTSRLHSGVPSRFSGSGSGTDFTFTISSLQPEDIATYYCQQGNTLPYTFGQGTKVEIKR
- EC50 [1]: 1.75 nM
- Kd [2]: 0.448 nM
- koff [2]: 0.00016 s⁻¹
- kon [2]: 357000 M⁻¹ s⁻¹

B2: 2B5-hLL-8C11 anti-murine TNFα/anti-PGE2 DVD-Ig with human long linker (bispecific antibody, human IgG1)
VH: QVQLQQSGPELVRPGSSVKISCKASGYTFTKYWLGWVKQRPGHGLEWIGDIYPGYDYTHYNEKFKDKATLTVDTSSSTAYMQLSSLTSEDSAIYYCARSDGSSTYWGQGTLVTVSAASTKGPSVFPLAPEFQLQQSGPELVKPGASVRISCKASGYSFTDYNMNWVKQSNGKSLEWVGVINPNYGSSTYNQKFKGKATLTVDQSSSTAYMQLNSLTSEDSAVYYCARKWGQLGRGFFDVWGTGTTVTVSS
VL: DVLMTQTPLSLPVSLGDQASISCTSSQNIVHSNGNTYLEWYLQRPGQSPKLLIYKVSNRFSGVPDRFSGSGSGTVFTLKISRVEAEDLGVYYCFQVSHVPYTFGGGTKLEIKRTVAAPSVFIFPPQIVLSQSPAILSASPGEKVTMTCRASSSVSYMHWFQQKPGSSPKPWIYATSNLASGVPARFSGSGSGTSYSLTISRVEAEDAATYYCQQWSSSPLTFGAGTKLELKR
notes: DVD-Ig; Outer domain is 2B5 (PGE2), inner domain is 8C11 (murine TNFα)
- IC50 (murine TNFα [3]): 0.256 nM
- IC50, L929 assay (TNFα-induced cell death) (murine TNFα [4]): 0.088 nM

B3: DVD154 (IL-15 / PGE2 DVD-Ig) (bispecific antibody)
VH: EVQLVQSGAEVKKPGESLKISCKVSGYFFTTYWIGWVRQMPGKGLEYMGIIYPGDSDTRYSPSFQGQVTISADKSISTAYLQWSSLKASDTAMYYCARGGNWNCFDYWGQGTLVTVSSASTKGPEVQLVQSGAEVKKPGASVKVSCKASGYTFTKYWLGWVRQAPGQGLEWMGDIYPGYDYTHYNEKFKDRVTLTTDTSTSTAYMELRSLRSDDTAVYYCARSDGSSTYWGQGTLVTVSS
VL: EIVLTQSPGTLSLSPGERATLSCRASQSVSSSYLAWYQQKPGQAPRLLIYGASRRATGIPDRFSGSGSGTDFTLTISRLEPEDFAVYYCQRYGSSHTFGQGTKLEISRTVAAPDVLMTQTPLSLPVTPGEPASISCTSSQNIVHSNGNTYLEWYLQKPGQSPQLLIYKVSNRFSGVPDRFSGSGSGTDFTLKISRVEAEDVGVYYCFQVSHVPYTFGGGTKVEIKR
notes: Outer domain is AB049 (IL-15), inner domain is AB048 (PGE2); also called VD154H; VD154L
- Kd (Recombinant Human IL-15): 4.89 nM
- koff (Recombinant Human IL-15): 0.00198 s⁻¹
- kon (Recombinant Human IL-15): 404000 M⁻¹ s⁻¹

B4: 2B5-hSL-8C11 anti-murine TNFα/anti-PGE2 DVD-Ig with human short linker (bispecific antibody)
VH: QVQLQQSGPELVRPGSSVKISCKASGYTFTKYWLGWVKQRPGHGLEWIGDIYPGYDYTHYNEKFKDKATLTVDTSSSTAYMQLSSLTSEDSAIYYCARSDGSSTYWGQGTLVTVSAASTKGPEFQLQQSGPELVKPGASVRISCKASGYSFTDYNMNWVKQSNGKSLEWVGVINPNYGSSTYNQKFKGKATLTVDQSSSTAYMQLNSLTSEDSAVYYCARKWGQLGRGFFDVWGTGTTVTVSS
VL: DVLMTQTPLSLPVSLGDQASISCTSSQNIVHSNGNTYLEWYLQRPGQSPKLLIYKVSNRFSGVPDRFSGSGSGTVFTLKISRVEAEDLGVYYCFQVSHVPYTFGGGTKLEIKRTVAAPQIVLSQSPAILSASPGEKVTMTCRASSSVSYMHWFQQKPGSSPKPWIYATSNLASGVPARFSGSGSGTSYSLTISRVEAEDAATYYCQQWSSSPLTFGAGTKLELKR
notes: DVD-Ig; Outer domain is 2B5 (PGE2), inner domain is 8C11 (murine TNFα); also called 2B5-huSL-8C11
- IC50 (murine TNFα [3]): 0.234 nM
- IC50, L929 assay (TNFα-induced cell death) (murine TNFα [4]): 4.39 nM

B5: anti-TNFα monoclonal antibody clone 8C11 (antibody, V domains shown)
VH: EFQLQQSGPELVKPGASVRISCKASGYSFTDYNMNWVKQSNGKSLEWVGVINPNYGSSTYNQKFKGKATLTVDQSSSTAYMQLNSLTSEDSAVYYCARKWGQLGRGFFDVWGTGTTVTVSS
VL: QIVLSQSPAILSASPGEKVTMTCRASSSVSYMHWFQQKPGSSPKPWIYATSNLASGVPARFSGSGSGTSYSLTISRVEAEDAATYYCQQWSSSPLTFGAGTKLELKR
notes: Murine hybridoma antibody against murine TNFα; also called 8C11-1E10; anti-mouse TNF monoclonal antibody
- IC50 (murine TNFα [3]): 0.201 nM
- IC50, L929 assay (TNFα-induced cell death) (murine TNFα [4]): 5.85 nM

B6: DVD151 (PGE2 / IL-6R DVD-Ig) (bispecific antibody, human IgG1)
VH: EVQLVQSGAEVKKPGASVKVSCKASGYTFTKYWLGWVRQAPGQGLEWMGDIYPGYDYTHYNEKFKDRVTLTTDTSTSTAYMELRSLRSDDTAVYYCARSDGSSTYWGQGTLVTVSSASTKGPEVQLQESGPGLVRPSQTLSLTCTVSGYSITSDHAWSWVRQPPGRGLEWIGYISYSGITTYNPSLKSRVTMLRDTSKNQFSLRLSSVTAADTAVYYCARSLARTTAMDYWGQGSLVTVSS
VL: DVLMTQTPLSLPVTPGEPASISCTSSQNIVHSNGNTYLEWYLQKPGQSPQLLIYKVSNRFSGVPDRFSGSGSGTDFTLKISRVEAEDVGVYYCFQVSHVPYTFGGGTKVEIKRTVAAPDIQMTQSPSSLSASVGDRVTITCRASQDISSYLNWYQQKPGKAPKLLIYYTSRLHSGVPSRFSGSGSGTDFTFTISSLQPEDIATYYCQQGNTLPYTFGQGTKVEIKR
notes: Outer domain is AB048 (PGE2), inner domain is AB054 (IL-6R); also called VD151H; VD151L
- EC50 [5]: 26.5 µM
- Kd [6]: 5.94 nM
- koff [6]: 0.00015 s⁻¹
- kon [6]: 25300 M⁻¹ s⁻¹

B7: DVD163 (PGE2 / NGF DVD-Ig) (bispecific antibody)
VH: EVQLVQSGAEVKKPGASVKVSCKASGYTFTKYWLGWVRQAPGQGLEWMGDIYPGYDYTHYNEKFKDRVTLTTDTSTSTAYMELRSLRSDDTAVYYCARSDGSSTYWGQGTLVTVSSASTKGPQVQLQESGPGLVKPSETLSLTCTVSGFSLIGYDLNWIRQPPGKGLEWIGIIWGDGTTDYNSAVKSRVTISKDTSKNQFSLKLSSVTAADTAVYYCARGGYWYATSYYFDYWGQGTLVTVSS
VL: B6 VL with D146S, S149N, Y150N, L172F, G209E, N210H, V222L
notes: Outer domain is AB048 (PGE2), inner domain is AB020 (NGF); also called VD163H; VD3163L
- Kd (Recombinant Human β-NGF): 0.122 nM
- koff (Recombinant Human β-NGF): 1.03e-06 s⁻¹
- kon (Recombinant Human β-NGF): 8400 M⁻¹ s⁻¹
